Measured values taken from patent US20230250154A1 (CYTONICS, published 2023).

B1: Variant A2M, bait region SEQ ID NO 109 (other)
chain: SVSGKPQYMVLVPSLLHTETTEKGCVLLSYLNETVTVSASLESVRGNRSLFTDLEAENDVLHCVAFAVPKSSSNEEVMFLTVQVKGPTQEFKKRTTVMVKNEDSLVFVQTDKSIYKPGQTVKFRVVSMDENFHPLNELIPLVYIQDPKGNRIAQWQSFQLEGGLKQFSFPLSSEPFQGSYKVVVQKKSGGRTEHPFTVEEFVLPKFEVQVTVPKIITILEEEMNVSVCGLYTYGKPVPGHVTVSICRKYSDASDCHGEDSQAFCEKFSGQLNSHGCFYQQVKTKVFQLKRKEYEMKLHTEAQIQEEGTVVELTGRQSSEITRTITKLSFVKVDSHFRQGIPFFGQVRLVDGKGVPIPNKVIFIRGNEANYYSNATTDEHGLVQFSINTTNVMGTSLTVRVNYKDRSPCYGYQWVSEEHEEAHHTAYLVFSPSKSFVHLEPMSHELPCGHTQTVQAHYILNGGTLLGLKKLSFYYLIMAKGGIVRTGTHGLLVKQEDMKGHFSISIPVKSDIAPVARLLIYAVLPTGDVIGDSAKYDVENCLANKVDLSFSPSQSLPASHAHLRVTAAPQSVCALRAVDQSVLLMKPDAELSASSVYNLLPEKDLTGFPGPLNDQDDEDCINRHNVYINGITYTPVSSTNEKDMYSFLEDMGLKAFTNSKIRKPKMCPQLEPAGAARGESESEGGFFGFPIGERESTGGDRGLPIGENEAGGKLRKYFPETWIWDLVVVNSAGVAEVGVTVPDTITEWKAGAFCLSEDAGLGISSTASLRAFQPFFVELTMPYSVIRGEAFTLKATVLNYLPKCIRVSVQLEASPAFLAVPVEKEQAPHCICANGRQTVSWAVTPKSLGNVNFTVSAEALESQELCGTEVPSVPEHGRKDTVIKPLLVEPEGLEKETTFNSLLCPSGGEVSEELSLKLPPNVVEESARASVSVLGDILGSAMQNTQNLLQMPYGCGEQNMVLFAPNIYVLDYLNETQQLTPEIKSKAIGYLNTGYQRQLNYKHYDGSYSTFGERYGRNQGNTWLTAFVLKTFAQARAYIFIDEAHITQALIWLSQRQKDNGCFRSSGSLLNNAIKGGVEDEVTLSAYITIALLEIPLTVTHPVVRNALFCLESAWKTAQEGDHGSHVYTKALLAYAFALAGNQDKRKEVLKSLNEEAVKKDNSVHWERPQKPKAPVGHFYEPQAPSAEVEMTSYVLLAYLTAQPAPTSEDLTSATNIVKWITKQQNAQGGFSSTQDTVVALHALSKYGAATFTRTGKAAQVTIQSSGTFSSKFQVDNNNRLLLQQVSLPELPGEYSMKVTGEGCVYLQTSLKYNILPEKEEFPFALGVQTLPQTCDEPKAHTSFQISLSVSYTGSRSASNMAIVDVKMVSGFIPLKPTVKMLERSNHVSRTEVSSNHVLIYLDKVSNQTLSLFFTVLQDVPVRDLKPAIVKVYDYYETDEFAIAEYNAPCSKDLGNADYKDDDDKGASHHHHHH
B2: Variant A2M, bait region SEQ ID NO 106 (other)
chain: SVSGKPQYMVLVPSLLHTETTEKGCVLLSYLNETVTVSASLESVRGNRSLFTDLEAENDVLHCVAFAVPKSSSNEEVMFLTVQVKGPTQEFKKRTTVMVKNEDSLVFVQTDKSIYKPGQTVKFRVVSMDENFHPLNELIPLVYIQDPKGNRIAQWQSFQLEGGLKQFSFPLSSEPFQGSYKVVVQKKSGGRTEHPFTVEEFVLPKFEVQVTVPKIITILEEEMNVSVCGLYTYGKPVPGHVTVSICRKYSDASDCHGEDSQAFCEKFSGQLNSHGCFYQQVKTKVFQLKRKEYEMKLHTEAQIQEEGTVVELTGRQSSEITRTITKLSFVKVDSHFRQGIPFFGQVRLVDGKGVPIPNKVIFIRGNEANYYSNATTDEHGLVQFSINTTNVMGTSLTVRVNYKDRSPCYGYQWVSEEHEEAHHTAYLVFSPSKSFVHLEPMSHELPCGHTQTVQAHYILNGGTLLGLKKLSFYYLIMAKGGIVRTGTHGLLVKQEDMKGHFSISIPVKSDIAPVARLLIYAVLPTGDVIGDSAKYDVENCLANKVDLSFSPSQSLPASHAHLRVTAAPQSVCALRAVDQSVLLMKPDAELSASSVYNLLPEKDLTGFPGPLNDQDDEDCINRHNVYINGITYTPVSSTNEKDMYSFLEDMGLKAFTNSKIRKPKMCPQLEQYEMHGPEGLRVGESESEGGFAGLPNGKEEEGLGSIPENFFGVKLRKYFPETWIWDLVVVNSAGVAEVGVTVPDTITEWKAGAFCLSEDAGLGISSTASLRAFQPFFVELTMPYSVIRGEAFTLKATVLNYLPKCIRVSVQLEASPAFLAVPVEKEQAPHCICANGRQTVSWAVTPKSLGNVNFTVSAEALESQELCGTEVPSVPEHGRKDTVIKPLLVEPEGLEKETTFNSLLCPSGGEVSEELSLKLPPNVVEESARASVSVLGDILGSAMQNTQNLLQMPYGCGEQNMVLFAPNIYVLDYLNETQQLTPEIKSKAIGYLNTGYQRQLNYKHYDGSYSTFGERYGRNQGNTWLTAFVLKTFAQARAYIFIDEAHITQALIWLSQRQKDNGCFRSSGSLLNNAIKGGVEDEVTLSAYITIALLEIPLTVTHPVVRNALFCLESAWKTAQEGDHGSHVYTKALLAYAFALAGNQDKRKEVLKSLNEEAVKKDNSVHWERPQKPKAPVGHFYEPQAPSAEVEMTSYVLLAYLTAQPAPTSEDLTSATNIVKWITKQQNAQGGFSSTQDTVVALHALSKYGAATFTRTGKAAQVTIQSSGTFSSKFQVDNNNRLLLQQVSLPELPGEYSMKVTGEGCVYLQTSLKYNILPEKEEFPFALGVQTLPQTCDEPKAHTSFQISLSVSYTGSRSASNMAIVDVKMVSGFIPLKPTVKMLERSNHVSRTEVSSNHVLIYLDKVSNQTLSLFFTVLQDVPVRDLKPAIVKVYDYYETDEFAIAEYNAPCSKDLGNADYKDDDDKGASHHHHHH
B3: Variant A2M, bait region SEQ ID NO 107 (other)
chain: SVSGKPQYMVLVPSLLHTETTEKGCVLLSYLNETVTVSASLESVRGNRSLFTDLEAENDVLHCVAFAVPKSSSNEEVMFLTVQVKGPTQEFKKRTTVMVKNEDSLVFVQTDKSIYKPGQTVKFRVVSMDENFHPLNELIPLVYIQDPKGNRIAQWQSFQLEGGLKQFSFPLSSEPFQGSYKVVVQKKSGGRTEHPFTVEEFVLPKFEVQVTVPKIITILEEEMNVSVCGLYTYGKPVPGHVTVSICRKYSDASDCHGEDSQAFCEKFSGQLNSHGCFYQQVKTKVFQLKRKEYEMKLHTEAQIQEEGTVVELTGRQSSEITRTITKLSFVKVDSHFRQGIPFFGQVRLVDGKGVPIPNKVIFIRGNEANYYSNATTDEHGLVQFSINTTNVMGTSLTVRVNYKDRSPCYGYQWVSEEHEEAHHTAYLVFSPSKSFVHLEPMSHELPCGHTQTVQAHYILNGGTLLGLKKLSFYYLIMAKGGIVRTGTHGLLVKQEDMKGHFSISIPVKSDIAPVARLLIYAVLPTGDVIGDSAKYDVENCLANKVDLSFSPSQSLPASHAHLRVTAAPQSVCALRAVDQSVLLMKPDAELSASSVYNLLPEKDLTGFPGPLNDQDDEDCINRHNVYINGITYTPVSSTNEKDMYSFLEDMGLKAFTNSKIRKPKMCPQLEQYEMHGPEGLRVGIPENFFGVTSEDLVVQEAIPMSIPKLRKYFPETWIWDLVVVNSAGVAEVGVTVPDTITEWKAGAFCLSEDAGLGISSTASLRAFQPFFVELTMPYSVIRGEAFTLKATVLNYLPKCIRVSVQLEASPAFLAVPVEKEQAPHCICANGRQTVSWAVTPKSLGNVNFTVSAEALESQELCGTEVPSVPEHGRKDTVIKPLLVEPEGLEKETTFNSLLCPSGGEVSEELSLKLPPNVVEESARASVSVLGDILGSAMQNTQNLLQMPYGCGEQNMVLFAPNIYVLDYLNETQQLTPEIKSKAIGYLNTGYQRQLNYKHYDGSYSTFGERYGRNQGNTWLTAFVLKTFAQARAYIFIDEAHITQALIWLSQRQKDNGCFRSSGSLLNNAIKGGVEDEVTLSAYITIALLEIPLTVTHPVVRNALFCLESAWKTAQEGDHGSHVYTKALLAYAFALAGNQDKRKEVLKSLNEEAVKKDNSVHWERPQKPKAPVGHFYEPQAPSAEVEMTSYVLLAYLTAQPAPTSEDLTSATNIVKWITKQQNAQGGFSSTQDTVVALHALSKYGAATFTRTGKAAQVTIQSSGTFSSKFQVDNNNRLLLQQVSLPELPGEYSMKVTGEGCVYLQTSLKYNILPEKEEFPFALGVQTLPQTCDEPKAHTSFQISLSVSYTGSRSASNMAIVDVKMVSGFIPLKPTVKMLERSNHVSRTEVSSNHVLIYLDKVSNQTLSLFFTVLQDVPVRDLKPAIVKVYDYYETDEFAIAEYNAPCSKDLGNADYKDDDDKGASHHHHHH

Tests used:
Assay in all cases: cell-based or functional assay
MMP13 = MMP13 (human, UniProt P45452 104-471, limits assumed)
ADAMTS5 = biological target: T1, ADAMTS5 (human, UniProt Q9UNA0 262-622, limits assumed)
T1 sequence (looked up): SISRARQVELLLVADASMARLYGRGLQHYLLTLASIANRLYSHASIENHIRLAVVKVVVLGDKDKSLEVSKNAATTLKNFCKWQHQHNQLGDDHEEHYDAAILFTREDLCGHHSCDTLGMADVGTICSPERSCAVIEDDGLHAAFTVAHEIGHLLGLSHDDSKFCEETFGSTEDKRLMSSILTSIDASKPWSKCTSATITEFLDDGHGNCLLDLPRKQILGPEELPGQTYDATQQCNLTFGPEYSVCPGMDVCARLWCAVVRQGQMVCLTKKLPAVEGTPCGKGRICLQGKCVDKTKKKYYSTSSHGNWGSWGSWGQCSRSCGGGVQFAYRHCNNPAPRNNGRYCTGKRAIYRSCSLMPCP

ADAMTS4 = biological target: T2, ADAMTS4 (human, UniProt O75173 213-685, limits assumed)
T2 sequence (looked up): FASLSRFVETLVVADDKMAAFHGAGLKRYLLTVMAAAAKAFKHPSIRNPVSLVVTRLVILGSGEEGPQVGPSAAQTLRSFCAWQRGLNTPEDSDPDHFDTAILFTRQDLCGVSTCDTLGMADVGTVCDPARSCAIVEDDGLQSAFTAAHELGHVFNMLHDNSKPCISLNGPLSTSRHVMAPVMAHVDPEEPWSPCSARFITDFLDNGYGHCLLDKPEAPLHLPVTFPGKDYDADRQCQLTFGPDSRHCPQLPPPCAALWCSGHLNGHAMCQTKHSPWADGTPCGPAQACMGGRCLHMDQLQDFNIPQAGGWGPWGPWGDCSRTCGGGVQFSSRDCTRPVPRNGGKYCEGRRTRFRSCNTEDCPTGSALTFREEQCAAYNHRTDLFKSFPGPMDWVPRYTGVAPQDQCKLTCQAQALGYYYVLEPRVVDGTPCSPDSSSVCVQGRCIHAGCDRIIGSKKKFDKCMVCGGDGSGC

Binder	Protease Inhibition (% of WT) (MMP13)	Protease Inhibition (% of WT) (ADAMTS5)	Protease Inhibition (% of WT) (ADAMTS4)
B1	122 % of WT	105 % of WT	112 % of WT
B2	16 % of WT	93 % of WT	104 % of WT
B3	136 % of WT	108 % of WT	92 % of WT
